# Data from patent US20160032001A1 (APEXIGEN, published 2016).
# Read-outs that look alike come from different tables or passages of the source.
# T1: RANKL expressed on the surface of 293 cells (UniProt O14788 1-317, limits assumed)
# T1 construct: whole, on cells; also called RANKL-transfected 293 cells; cells expressing RANKL
# T1 sequence (looked up): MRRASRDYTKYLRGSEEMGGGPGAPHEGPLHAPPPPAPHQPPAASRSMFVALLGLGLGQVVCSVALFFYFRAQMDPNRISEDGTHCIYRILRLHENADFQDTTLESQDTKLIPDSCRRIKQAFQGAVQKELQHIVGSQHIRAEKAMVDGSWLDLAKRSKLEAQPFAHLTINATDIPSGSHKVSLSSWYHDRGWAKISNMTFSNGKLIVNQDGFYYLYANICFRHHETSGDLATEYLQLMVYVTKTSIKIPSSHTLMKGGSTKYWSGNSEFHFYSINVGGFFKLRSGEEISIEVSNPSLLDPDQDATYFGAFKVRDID
# T2: human RANKL protein (human, UniProt O14788 140-317, limits assumed)
# T2 sequence (looked up): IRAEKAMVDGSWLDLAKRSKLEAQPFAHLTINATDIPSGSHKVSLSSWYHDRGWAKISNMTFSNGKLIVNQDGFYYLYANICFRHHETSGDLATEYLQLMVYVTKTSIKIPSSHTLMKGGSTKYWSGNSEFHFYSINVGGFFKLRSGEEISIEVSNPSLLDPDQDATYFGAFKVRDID
# What was measured:
# [1] = molecular target: T1, RANKL expressed on the surface of 293 …; assay: flow cytometry (MFI) on RANKL-transfected 293 cells
# human RANKL protein [2] = molecular target: T2, human RANKL protein; assay: surface plasmon resonance
# human RANKL protein [3] = molecular target: T2, human RANKL protein; assay: cell-based or functional assay
# [4] = molecular target: T1, RANKL expressed on the surface of 293 …; assay: flow cytometry (MFI) on RANKL-transfected 293 cells; remark: listed apart in the source
# human RANKL protein [5] = molecular target: T2, human RANKL protein; assay: competition ELISA: RANKL (0.5 ug/ml) pre-incubated with the antibody, then binding to coated human RANK (8 ug/ml) detected; blocked partner RANK
# human RANKL protein [6] = molecular target: T2, human RANKL protein; assay: competition ELISA: RANKL (0.5 ug/ml) pre-incubated with the antibody, then binding to coated RANK (8 ug/ml) detected; blocked partner RANK [table at the lower right]
# human RANKL protein [7] = molecular target: T2, human RANKL protein; assay: competition ELISA: RANKL (0.5 ug/ml) pre-incubated with the antibody, then binding to coated human RANK (8 ug/ml) detected; blocked partner RANK; remark: listed apart in the source
# [8] = molecular target: T1, RANKL expressed on the surface of 293 …; assay: flow cytometry (MFI) on RANKL-transfected 293 cells; remark: listed apart in the source
# [9] = molecular target: T1, RANKL expressed on the surface of 293 …; assay: as above; remark: listed apart in the source
# human RANKL protein [10] = molecular target: T2, human RANKL protein; assay: ELISA on RANKL protein (OD450nm)
# [11] = molecular target: T1, RANKL expressed on the surface of 293 …; assay: flow cytometry (MFI) on RANKL-transfected 293 cells; remark: listed apart in the source
# human RANKL protein [12] = molecular target: T2, human RANKL protein; assay: competition ELISA: RANKL (0.5 ug/ml) pre-incubated with the antibody, then binding to coated human RANK (8 ug/ml) detected; blocked partner RANK; remark: listed apart in the source
binder,measurement,setting,value
"clone 23 rabbit anti-RANKL antibody (antibody, V domains shown, also called RabMAb 23; parent 23 rabbit antibody) VH: QEQLKESGGGLVTPGGTLTLTCTASGFSLSSDGMSWVRQAPGKGLEWIGYIYSGSSPYYANWAKGRFTISKTSSTTVDLKMTSLTTEDTATYFCARHGSGGGWYLDIWGPGTLVTVSS VL: AYDMIQTPASVEVAVGGTVTINCQASQTIGTNLAWYQQKPGQRPKLLIYAASTLPSGVSSRFKGSGSGTQFTLTISDVECSDAATYYCQQAYSVGNVDNAFGGGTEVVVK",EC50,[1],0.1 µg/mL
same,Kd,human RANKL protein [2],0.162 nM
same,koff,human RANKL protein [2],0.000154 s⁻¹
same,kon,human RANKL protein [2],950000 M⁻¹ s⁻¹
same,"IC50 in a RAW cell assay (TRAP activity, OD 405 nM)",human RANKL protein [3],0.00171 µg/mL
same,EC50,[4],0.0903 µg/mL
same,IC50,human RANKL protein [5],0.0111 µg/mL
same,IC50,human RANKL protein [6],0.041 µg/mL
"clone 408 rabbit anti-RANKL antibody (antibody, V domains shown) VH: QSVEESGGRLVTPGTPLTLTCTVSGFSLSTDVVSWVRQAPGKGLEWIGYTWNGGATFYASWAKGRFTFSKTSTTVDLKITSPTTEDTATYFCARGYNGMDPWGPGTLVTVSS VL: DMTQTPASVEAAVGGAVTIKCQASQNIGSNLAWYHQKPGQPPKLLISKASTLASGVPSRFKGSGSGTEFTLAISDLECADAATYYCQQGYTTKNVVNPFGGGTEVVVK",IC50,human RANKL protein [7],0.058 µg/mL
same,Kd,human RANKL protein [2],0.432 nM
same,koff,human RANKL protein [2],0.000262 s⁻¹
same,kon,human RANKL protein [2],607000 M⁻¹ s⁻¹
same,EC50,[8],0.303 µg/mL
same,"IC50 in a RAW cell assay (TRAP activity, OD 405 nM)",human RANKL protein [3],0.00644 µg/mL
same,EC50,[9],0.0898 µg/mL
same,IC50,human RANKL protein [6],0.098 µg/mL
"clone 193 rabbit anti-RANKL antibody (antibody, V domains shown) VH: QSVEESGGRLVTPGTPLTLTCTFSGFSLSNNAINWVRQAPGKGLEWIGYTWSGGGTYCASWAKGRFTISKTSSTTVDLKMTSLTTEDTATYFCARAYDSEWDRLDLWGQGTLVTVSS VL: VMTQTPASVSGPVGGTVTIKCQASQSIGSNLGWYQQKPGQPPKLLIFSASNLESGVPSRFKGSGSGTQFTLTISDLECDDAATYYCQQGYTTNNVLNAFAGGTEVVVK",EC50,[4],0.135 µg/mL
same,IC50,human RANKL protein [5],0.0665 µg/mL
"clone 191 rabbit anti-RANKL antibody (antibody, V domains shown) VH: QSVEESGGRLVTPGTPLTLTCTVSGFSLYTNLINWVRQAPGKGLEWIGYINYGASAYYANWAKGRFTISQTSSTTVDLKMTSLTIEDTATYFCARGYGNDWDRLDLWGQGTLVTVSS VL: IVMTQTPSPVSGAVGGTVTINCQASQSIGSNLAWYQQKPGQPPKLLIYSASILASGAPSRVSGSGYGTEFTLTISGVQCADAATYYCQQGYTTNADNIFGGGTEVVVE",EC50,[4],0.174 µg/mL
same,IC50,human RANKL protein [5],0.0823 µg/mL
"clone 210 rabbit anti-RANKL antibody (antibody, V domains shown) VH: QSVKESGGGLVTPGGTLTLTCTASGFSLSNNAMSWVRQAPGKGLEWIGYIYPGGSPYYANWAKGRFTISRTSTTVDLKMTSLTTEDTATYFCARHVSDGGWYLYIWGPGTLVTVSL VL: DMIQTPASVEVAVGGTVTINCQASQSIGSNLAWYQQKPGQPPKLLIYGASTLASGVPSRFKGSGSGTQFTFTISDVECTAAATYYCQQAYSISNVDNAFGGGTEVVVK",EC50,[4],0.292 µg/mL
same,IC50,human RANKL protein [5],0.071 µg/mL
"clone 174 rabbit anti-RANKL antibody (antibody, V domains shown) VH: QEQLQESGGGLITPGGTLTLTCTASGFSFNRNALSWVRQAPGKGLEWIGYIYSGGSPYYANWAKGRFNVSRTSTTVDLRMTSLTTEDTATYFCARHVSGGGWYLDIWGPGTLVTVSL VL: DMIQTPASVEVAVGGTVTINCQASQNIGSNLAWYQQKPGQPPKLLIYGTSTLASGVSSRFKGSGFGTQFTFTISDVECTDAATYYCQQAYSISNVDNAFGGGTEVVVK",EC50,[4],0.13 µg/mL
same,IC50,human RANKL protein [5],0.0762 µg/mL
"humanized clone 23 antibody, VH 23HZD-1 HC with humanized VL 23 Vk (antibody, V domains shown, also called humanized 23 Vk; 23LHZD) VH: EVQLVESGGGLVQPGGSLRLSCAASGFSLSSDGMSWVRQAPGKGLEWIGYIYSGSSPYYANWAKGRFTISKDSSKNTVYLQMNSLRAEDTAVYFCARHGSGGGWYLDIWGPGTLVTVSS VL: DIQMTQSPSSLSASVGDRVTINCQASQTIGTNLAWYQQKPGKRPKLLIYAASTLPSGVPSRFSGSGSGTDFTLTISSLQPEDFATYYCQQAYSVGNVDNAFGGGTKVEIK",EC50,[1],0.414 µg/mL
same,IC50,human RANKL protein [6],0.112 µg/mL
"humanized clone 23 antibody, VH 23HZD-1 HC with humanized VL 23 Vkb, IgG1 (antibody, V domains shown, also called h23 IgG1) VH: EVQLVESGGGLVQPGGSLRLSCAASGFSLSSDGMSWVRQAPGKGLEWIGYIYSGSSPYYANWAKGRFTISKDSSKNTVYLQMNSLRAEDTAVYFCARHGSGGGWYLDIWGPGTLVTVSS VL: DIQMTQSPSSLSASVGDRVTINCQASQSIGSNLAWYQQKPGKRPKLLIYAASTLPSGVPSRFSGSGSGTDFTLTISSLQPEDFATYYCQQAYSVGNVDNAFGGGTKVEIK",EC50,human RANKL protein [10],0.0425 µg/mL
"h23n IgG2 humanized clone 23 antibody (antibody, V domains shown, IgG2; also called h23n VH and VL) VH: QEQLVESGGGLVQPGGSLRLSCVASGFSLSSDGMSWVRQAPGKGLEWIGYIYSGSSPYYANWAKGRFTISKDSSTNTVFLQMNSLRAEDTAVYFCARHGDGGGWYLDIWGPGTLVTVSS VL: DIQMTQSPSSLSASVGDRVTINCQASQSIGSNLAWYQQKPGKAPKLLIYAASTLPSGVSSRFSGSGSGTDFTLTINSLEAEDAATYYCQQAYSVGNVDNAFGGGTKVEIK",EC50,human RANKL protein [10],0.0117 µg/mL
"humanized clone 23 antibody, VH 23HZD-1 HC with humanized VL 23 Vkb, IgG2 (antibody, V domains shown, also called humanized 23 vkb; humanized 23 VKB) VH: EVQLVESGGGLVQPGGSLRLSCAASGFSLSSDGMSWVRQAPGKGLEWIGYIYSGSSPYYANWAKGRFTISKDSSKNTVYLQMNSLRAEDTAVYFCARHGSGGGWYLDIWGPGTLVTVSS VL: DIQMTQSPSSLSASVGDRVTINCQASQSIGSNLAWYQQKPGKRPKLLIYAASTLPSGVPSRFSGSGSGTDFTLTISSLQPEDFATYYCQQAYSVGNVDNAFGGGTKVEIK",EC50,[1],0.947 µg/mL
same,EC50,human RANKL protein [10],0.0238 µg/mL
same,IC50,human RANKL protein [6],0.081 µg/mL
"humanized clone 408 anti-RANKL antibody (antibody, V domains shown) VH: EVQLVESGGGLVQPGGSLRLSCAVSGFSLSTDVVSWVRQAPGKGLEWIGYTWNGGATFYASWAKGRFTFSKDSSKNTVYLQMNSPRAEDTAVYFCARGYNGMDPWGPGTLVTVSS VL: DIQMTQSPSSLSASVGDRVTIKCQASQNIGSNLAWYQQKPGKPPKLLISKASTLASGVPSRFSGSGSGTDFTLTISSLQPEDFATYYCQQGYTTKNVVNPFGGGTKVEIK",EC50,[8],0.731 µg/mL
same,IC50,human RANKL protein [6],0.096 µg/mL
"humanized clone EBI-51-22 anti-RANKL antibody (antibody, V domains shown, also called humanized EBI-51-22; humanized EBI51-22) VH: EVQLVESGGGLVQPGGSLRLSCAVSGFSLSTDVLSWVRQAPGKGLEWIGYTWSGGSTYYASWAKGRFTISKDSSKNTVYLQMNSPRAEDTAVYFCARGFNPFDPWGPGTLVTVSS VL: DIQMTQSPSSLSASVGDRVTIKCQASQNIGSNLAWYQQKPGKRPKLLIYRASTLASGVPSRFSGSGSGTDFTLTISSLQPEDFATYYCQQGYSAGNVDNNAFGGGTKVEIK",EC50,[8],0.361 µg/mL
same,IC50,human RANKL protein [6],0.127 µg/mL
"clone EBI-51-22 rabbit anti-RANKL antibody (antibody, V domains shown) VH: QSVEESGGRLVTPGTLLTLTCTVSGFSLSTDVLSWVRQAPGKGLEWIGYTWSGGSTYYASWAKGRFTISKTSSTTVDLKITSPTTEDTATYFCARGFNPFDPWGPGTLVTVSS VL: DMTQTPASVSDPVGGTVTIKCQASQNIGSNLAWYQQKPGQRPKLLIYRASTLASGVSSRFKGSGSGTQFTLTISDLECADAATYYCQQGYSAGNVDNNAFGGGTEVVVK",Kd,human RANKL protein [2],0.312 nM
same,koff,human RANKL protein [2],0.000275 s⁻¹
same,kon,human RANKL protein [2],880000 M⁻¹ s⁻¹
same,EC50,[8],0.4 µg/mL
same,"IC50 in a RAW cell assay (TRAP activity, OD 405 nM)",human RANKL protein [3],0.0036 µg/mL
same,EC50,[11],0.083 µg/mL
same,IC50,human RANKL protein [12],0.0439 µg/mL
same,IC50,human RANKL protein [6],0.083 µg/mL
